The values that follow come from patent publication US20110117110A1 (FACET BIOTECH, published 2011).

The target of experiment [1] is T1, EGFR on A431 cells (human, UniProt P00533 25-1210).
T1 construct: whole, on cells; also called epidermal growth factor receptor; ErbB-1
Kind of experiment: FACS competition on A431 cells: unlabelled antibody against biotinylated cetuximab (0.5 µg/mL), streptavidin-RPE detection; column Average of Trials 1-3, column SD prints 0.4.
Description: (§1) A431 cells were grown to 2×10⁵ cells per well of V-bottom 96-well plates. Cells were washed with FACS staining buffer (FSB). […] The plates were then incubated on ice for 1 hour, and then washed twice with FSB. […] Cells were washed two times with FSB, and stained cells were resuspended with 200 μL of fixing buffer (1% paraformaldehyde). Samples were read using a flow cytometer.

In experiment [2] the target is T1, EGFR on A431 cells. The experiment is described as follows: FACS competition on A431 cells against biotinylated cetuximab; panel FACS Competition (2).
Description: as §1
The target of experiment [3] is T1, EGFR on A431 cells. Kind of experiment: FACS competition on A431 cells: unlabelled antibody against biotinylated cetuximab (0.5 µg/mL), streptavidin-RPE detection; Trial 1.
Description: as §1
Experiment [4] concerns the target T1, EGFR on A431 cells. The experiment is described as follows: FACS competition on A431 cells: unlabelled antibody against biotinylated cetuximab (0.5 µg/mL), streptavidin-RPE detection; Trial 3.
Description: as §1
In experiment [5] the target is T1, EGFR on A431 cells. Kind of experiment: FACS competition on A431 cells: unlabelled antibody against biotinylated cetuximab (0.5 µg/mL), streptavidin-RPE detection; Trial 2.
Description: as §1
The target of experiment [6] is T1, EGFR on A431 cells. The experiment is described as follows: FACS competition on A431 cells against biotinylated cetuximab; panel FACS Competition (3).
Description: as §1

B1: hu225 (antibody, V domains shown)
VH: EVQLVESGGGLVQPGGSLRLSCAASGFSLTNYGVHWVRQAPGKGLEWLGVIWSGGNTDYNTPFTSRLTINKDNSKNTVYLQMNSLRAEDTAVYYCARALTYYDYEFAYWGQGTLVTVSS
VL: DILLTQSPGTLSLSPGERATLSCRASQSIGTNIHWYQQKPGQAPRLLIKYASESISGIPDRFSGSGSGTDFTLTISRLEPEDFAVYYCQQNNNWPTTFGQGTKLEIKR
notes: also called humanized version of MAb225; humanized cetuximab
In the case of B1, the IC50 in the experiment with EGFR on A431 cells [1] amounted to 1.79 mg/L; with EGFR on A431 cells [3] it was 1.71 mg/L; with EGFR on A431 cells [4], 2.62 mg/L; with EGFR on A431 cells [5], 1.06 mg/L. The “IC50 (read off the curve)” value with EGFR on A431 cells [2] was approximately 1 mg/L; in the experiment with EGFR on A431 cells [6], approximately 3 mg/L.

A word on the IC50: it is the midpoint of a concentration-inhibition curve. A low value points to higher potency.
